Results taken from PMC4220973, “Structural insights into the human RyR2 N-terminal region involved in cardiac arrhythmias” (Acta Crystallographica Section D: Biological Crystallography, 2014).

Target: the molecule itself
Assay: SEC; analytical size-exclusion chromatography at 4°C; self-association, monomer to dimer

B1: hRyR2^1-606 I419F mutant (domain or fragment, human, UniProt Q92736 1-606, looked up)
chain: MADGGEGEDEIQFLRTDDEVVLQCTATIHKEQQKLCLAAEGFGNRLCFLESTSNSKNVPPDLSICTFVLEQSLSVRALQEMLANTVEKSEGQVDVEKWKFMMKTAQGGGHRTLLYGHAILLRHSYSGMYLCCLSTSRSSTDKLAFDVGLQEDTTGEACWWTIHPASKQRSEGEKVRVGDDLILVSVSSERYLHLSYGNGSLHVDAAFQQTLWSVAPISSGSEAAQGYLIGGDVLRLLHGHMDECLTVPSGEHGEEQRRTVHYEGGAVSVHARSLWRLETLRVAWSGSHIRWGQPFRLRHVTTGKYLSLMEDKNLLLMDKEKADVKSTAFTFRSSKEKLDVGVRKEVDGMGTSEIKYGDSVCYIQHVDTGLWLTYQSVDVKSVRMGSIQRKAIMHHEGHMDDGISLSRSQHEESRTARVFRSTVFLFNRFIRGLDALSKKAKASTVDLPIESVSLSLQDLIGYFHPPDEHLEHEDKQNRLRALKNRQNLFQEEGMINLVLECIDRLHVYSSAAHFADVAGREAGESWKSILNSLYELLAALIRGNRKNCAQFSGSLDWLISRLERLEASSGILEVLHCVLVESPEALNIIKEGHIKSIISLLDKHGR
notes: human ryanodine receptor 2 (hRyR2), N-terminal region, amino acids 1-606, with the cardiac disease-associated mutation I419F in the central helix; Mixture of dimer and monomer by SEC at 4°C (65:35%); Construct details (host, tags) are in Borko et al. (2013); source: recombinant, purified; substitution mutant prepared with the QuikChange protocol
percent dimer (dimer:monomer ratio): 65% | stoichiometry N: 2
